Km and kcat data for one protein are collected here from article PMC7134557.

As usually defined, the Km is the concentration of substrate that gives half-maximal velocity. As usually defined, the kcat is the number of substrate molecules converted per active site and unit of time at saturation.

Substrate in this data set: Nc1ncnc2c1ncn2[C@@H]1O[C@H](COP(=O)(O)OP(=O)(O)OP(=O)(O)O)[C@@H](O)[C@H]1O
The experiment in a line: purified protein.

B1: BaMV helicase-like domain (of BaMV replicase) (Bamboo mosaic virus) (protein)
chain: YSPDIERAAAFARDVMSNKTGAILPKQSHEWKTTLKRKCKLAPRQTLISVIHGAGGSGKSRALQEYMRNNKEDPIVTILPTNELRADWKAKLPAHDPDMFMTFENALLIPKGNVVIMDDYTKLPRGYIEAYVQNSPMLDLLILTGDPRQSEHFESAEGNTINDLSPSPVVFSAYARYYINATHRNNQDLANALGVYSEKQGKTRISVSNHIEDGRHTLVPSQIKQRNYVSMGRKTSTYAGCQGITASRVQVIIDNDTAKCSHQVLYTAFSRAADEIHFCNTMTDEKQFWAKVKCTPYLQAILNLTKEHSLPDP
With B1, the Michaelis-Menten constant (Km) was 148 ± 5 µM and the catalytic constant (kcat) worked out at 82 s⁻¹.
